Results reported in US20260241035A1, “FUNCTIONAL NUCLEIC ACID MOLECULE AND METHOD” (THE UNIVERSITY COURT OF THE UNIVERSITY OF EDINBURGH, priority 2022, published 2026).

T1: SOX9 (Homo sapiens, UniProt P48436)
T1 construct: These dsDNA fragments were incubated with nuclear extract from GSC7 and GSC328; endogenous in cells; host or cells: nuclear extract of GSC7 and/or GSC328 (patient-derived glioblastoma stem cell lines)
T1 sequence (P48436 1-509): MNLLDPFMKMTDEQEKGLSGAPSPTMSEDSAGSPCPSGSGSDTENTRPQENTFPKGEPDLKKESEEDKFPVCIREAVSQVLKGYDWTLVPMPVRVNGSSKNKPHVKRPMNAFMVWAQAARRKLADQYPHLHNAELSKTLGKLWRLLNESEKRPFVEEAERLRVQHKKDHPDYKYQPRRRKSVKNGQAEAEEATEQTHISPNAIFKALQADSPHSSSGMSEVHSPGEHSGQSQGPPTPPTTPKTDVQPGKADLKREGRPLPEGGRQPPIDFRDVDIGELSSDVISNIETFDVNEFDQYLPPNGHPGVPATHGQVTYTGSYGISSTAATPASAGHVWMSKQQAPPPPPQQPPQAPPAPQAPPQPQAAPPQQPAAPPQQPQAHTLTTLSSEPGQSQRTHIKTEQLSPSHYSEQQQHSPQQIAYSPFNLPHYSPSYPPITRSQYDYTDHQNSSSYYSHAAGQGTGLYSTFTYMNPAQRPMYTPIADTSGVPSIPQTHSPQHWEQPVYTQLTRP

B1: SSE-1: synthetic super-enhancer ID1101_ID2904_ID0109_ID4328, SEQ ID NO: 64 (nucleic acid)
DNA: GTGAGTGTGACTCACATGCTGGCATCAGAGCCCCTCTTAGAGCTTAGAACACTGGGCCTCTGTCAGGCAAAGAAAAGGAGTCCCTATGAATAGCCATCTCCACAAATAGCAGTTACTGTCACTTCTTAAAAGACACAAGCATGGCTGGAGACCGGCACTGTGCATGTTCTTGGGAAAAAGTGGTATTTAATGAAGGCGCTTTGAGCTGAATCAAAGAGCCTCATTCTTCTGAAAGTCCTTCTTCCTAGTCTCTGCATCCGGCTCCTATCAAAGGAAATCCACAGCTTTGGCTTTTCGTTGCTGTTGTCATGGAAATCGTTGAAATTGGATCCTGAGGAGAATGTCACCACCTCTTTGACAATAACTAGCTTTCAGAGCTGAACACAGTGAATCTGGATACTGTGTATATGTTTAAATGAGTTAGGAAATGACATCACATTATTTATTTCTTCTTTTGTGACTTAGTAAATTGACTTGGCCTACAATCTATTCTCCATAGTCATCAGAGTTTCTTTAAAGGCACGGTTCAGACAATGGCACCCTCTGTTCCAAACCCTCCAGGGCTTCCTATTTCACTTAGCATAAAAACCAAAGTCCTCACAATGACCGACAAGTCTTCACACAATGTGCCCCTTCATTG
B2: SSE-6: synthetic super-enhancer ID3548_ID3146_ID4310_ID4428, SEQ ID NO: 69 (nucleic acid)
DNA: TCCAAACACTCCCCTGCAACAGATGTACACACAGAGCCCATTGTTTTCTCTAGAAATGTAAACTGCACGTCACAGTTACTCCATACACACCACAAACAGACTCCCTTTGTTCTCAGGATATGTGTTGACACAAGAATATGTCATCCTCTCAGCTCCAGACTGAAAGAGATGGGTGTGTGGGAGTGGGGGAAGCTGAGCTCCAGGCAGACAGCACAGAGCCGCCTTGTCCAACCCAGCCAGGTGCCATGGCAACCAACAAAGGCCCCATTGTCCCGTGTCTGCTGGGCCTTCCTGAGGCTCTGGGGTCAGAGTCCCGGTTTTGTCCTGCCTTTGAGAACACTGGAAGGGCACTGAAGGCTGACCAGCATGCACCTCACCCCACCTCCTCTCTGTCTCATCCTCAGCCATCTAAGCGGGAGACTCATCAGGCTTAAATTCTCATTCTTATCCAAGATTCTTCTGCTTCAAATGAGTCTAAATGGAGATCCTCCCATAAAGGGAGTTCTGTTTGGGCTTCCCTTGGAAGTCCATTGAAAGCGTTTCACATTTCAATGCTTCTTTACATTCTCCTCTAGAATGAATCTGGAAGGGCCATTTCATTCCAGCCCTATCAGATTTACTACTTCCTCCTGT
B3: SSE-5: synthetic super-enhancer ID2706_ID3547_ID3548_ID3146, SEQ ID NO: 68 (nucleic acid)
DNA: CCAATGCCAAAGCAGTTTACATTTTACAGATGCCATGGCAACCGTCAGGAAGTTACCCTGTATGGTCTAAGAGGGGGAGGAACCCTCAGTTCCGGGAATTGCCCGCCCCTTTCCCGGAAACTCATGAATAATCCACCCCGTTCCCCCTTAACAAAAGCCACCTCCTCCCTCCTGAAAGGCACCATTGGTCACCAAAACAAGTCCCCTTTGTCCTCCACCGCAGCTGGAGCCTGGGCCTTCCATCTCCTGGGGGCCAATAAAACCCCAGATCAGCCAATCCTCCCTCCCTGGCTCTGTCATCCAAACACTCCCCTGCAACAGATGTACACACAGAGCCCATTGTTTTCTCTAGAAATGTAAACTGCACGTCACAGTTACTCCATACACACCACAAACAGACTCCCTTTGTTCTCAGGATATGTGTTGACACAAGAATATGTCATCCTCTCAGCTCCAGACTGAAAGAGATGGGTGTGTGGGAGTGGGGGAAGCTGAGCTCCAGGCAGACAGCACAGAGCCGCCTTGTCCAACCCAGCCAGGTGCCATGGCAACCAACAAAGGCCCCATTGTCCCGTGTCTGCTGGGCCTTCCTGAGGCTCTGGGGTCAGAGTCCCGGTT
B4: ID2904: enhancer fragment, SEQ ID NO: 5 (nucleic acid)
DNA: TGCATGTTCTTGGGAAAAAGTGGTATTTAATGAAGGCGCTTTGAGCTGAATCAAAGAGCCTCATTCTTCTGAAAGTCCTTCTTCCTAGTCTCTGCATCCGGCTCCTATCAAAGGAAATCCACAGCTTTGGCTTTTCGTTGCTGTTGTCATGGAAATCGTT
B5: SSE-3: synthetic super-enhancer ID0876_ID2339_ID1737_ID0663, SEQ ID NO: 66 (nucleic acid)
DNA: GAGCAGGCAGTCATTTGGTTCCCTTCTCTGAATGCATTGGCTCTGATCCACGGCGCCTCAGGAAGTGAAAGGGAGCAGGCAGTGAGGCCAAGCCATGAATGTTGGGCCCTTTTCTTAGAAAACAAAGGGTTCACTTTAGGCTAGGAGGAAACATCCGGGGGTCGGCGGAACTGAGTCTCCTTTGTGGAGCCCCTCATTTGCATGATAAACCCCGGGGACAAAGTGTGTTCTTGTTACTTGGACTGTTTCTTGGAAACTGCTGCTACCTGGAGCGAGTGAACACAGGGCAAGTATTCTCGCCCACAGCAACGTGTCATTGACAACGTTTTTGGCAGATGCAGCTCTTTCTGAACAGTAAGTCATTGTTGAGTGACATGAATAGGACGAGAGCTACAGAAAATGAAGGTTTCAAAAGATTGTCTAAAACAAAAGTCCTTTCAGTCCCGTATTCAGAGTTATAAATTCCGATTAGCCAAGGAAGCTCTGAGTCTAAATACCAGCAAAGCTCAGCCCCTGCAAGTGGGGACGAATTATTTGAAAGGTCATCCTAGAGACACTGAACAAAGGGCCTCTAGCAGCT
B6: SSE-2: synthetic super-enhancer ID0109_ID4328_ID0876_ID2339, SEQ ID NO: 65 (nucleic acid)
DNA: GAAATTGGATCCTGAGGAGAATGTCACCACCTCTTTGACAATAACTAGCTTTCAGAGCTGAACACAGTGAATCTGGATACTGTGTATATGTTTAAATGAGTTAGGAAATGACATCACATTATTTATTTCTTCTTTTGTGACTTAGTAAATTGACTTGGCCTACAATCTATTCTCCATAGTCATCAGAGTTTCTTTAAAGGCACGGTTCAGACAATGGCACCCTCTGTTCCAAACCCTCCAGGGCTTCCTATTTCACTTAGCATAAAAACCAAAGTCCTCACAATGACCGACAAGTCTTCACACAATGTGCCCCTTCATTGGAGCAGGCAGTCATTTGGTTCCCTTCTCTGAATGCATTGGCTCTGATCCACGGCGCCTCAGGAAGTGAAAGGGAGCAGGCAGTGAGGCCAAGCCATGAATGTTGGGCCCTTTTCTTAGAAAACAAAGGGTTCACTTTAGGCTAGGAGGAAACATCCGGGGGTCGGCGGAACTGAGTCTCCTTTGTGGAGCCCCTCATTTGCATGATAAACCCCGGGGACAAAGTGTGTTCTTGTTACTTGGACTGTTTCTTGGAAACTGCTGCTACCTGGAGCGAGTGAACACAGGGCAAGTATTCTCGCCCACAGCAACGTGTCATTGA

Tests used:
in vitro = type: cell-based, human; conditions: human; ganciclovir alone, GSC7; read-out: viability (MTT)
Description: (§2) On the day of cell seeding, cells were detached using above described method. Cells were counted using hemocytometer and seeded into either 96-(1,000 cells per well in 50 μL), 24-(30,000 cells per well in 500 μL) or 6-well (60,000 cells per well in 2 mL) Corning plate and placed into incubator at 37° C./5% CO2. The next day, AAV virus stocks were thawed at room temperature and an appropriate amount of virus stock was added to required amount of culture media to achieve final multiplicity of infection (MOI) of 5×10^5. Culture media containing viral particles was added to cells without replacement of existing media. Cells were returned to 37° C./5% CO2.
(§3) Lyophilised GCV was diluted in DMSO to achieve 100 mM stock concentration. GCV stocks were aliquoted and were stored at −20° C. for no longer than 1 month. […]
(§4) To track cell proliferation and morphological changes during treatments, cells were monitored using the Incucyte live-cell imaging system. […]
(§5) On the day of assay culture media was replaced with 0.3 mg/mL MTT solution (diluted in cell line-appropriate culture media). […] Before reading the plate, each well was visually inspected to make sure that all (formazan) crystals were dissolved. Plate was read with plate reader at 560 nm absorbance.

GSC7 cells [1] = assay: in vitro; type: cell-based, human; conditions: ganciclovir alone, no virus
Description: as §2, §3, §4, §5

GSC7 cells [2] = assay: Nano-Glo Dual-Luciferase Reporter (Nanoglo DLR) assay of enhancer activity, fold change to mCMV; type: cell-based, human; conditions: for activity compared with CMV, Nanoglo DLR assay: GSC7
How it was run: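 160 bp enhancer fragments in NanoLuc reporter plasmids were co-transfected 1:10 with PGK-firefly luciferase into GSC7 cells using Lipofectamine LTX/Plus and read two days later. NanoLuc signal was normalised to firefly, then expressed as fold change to the empty mCMV vector.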

GSC7 cells [3] = assay: Flow cytometry of mNGreen reporter in GSC7; type: cell-based, human
Description: Cells were seeded at the required density. The following day the transfection was carried out. […] Following this step, the Plus reagent/Optimem premix was added to all DNA samples followed by the Lipofectamine LTX/Optimem premix. The transfection mix was incubated for 5 min at room temperature and then carefully dropped on the cells. Generally, no media change was carried out. Cells were analysed two days following transfection.
(§1) For flow cytometry, cells were detached, pelleted and resuspended in an appropriate volume of flow cytometry buffer (1% BSA in PBS, v/v). Cells were stained with Draq7 (Abcam, ab109202, f.c. 0.1 μM) as a live/dead stain and analysed using the BD LSRFortessa cell analyser (4 lasers, BD Bioscience).

GSC328 cells = assay: Flow cytometry of mNGreen reporter in GSC328; type: cell-based, human
Description: Cells were seeded at the required density. The following day the transfection was carried out. For this the Plus reagent and Lipofectamine LTX (Life Technologies, 15338030) were each diluted in half the volume of Opti-MEM I Reduced-Serum Medium (further referred to as Optimem) (Life Technologies, 31985062). Following this step, the Plus reagent/Optimem premix was added to all DNA samples followed by the Lipofectamine LTX/Optimem premix. The transfection mix was incubated for 5 min at room temperature and then carefully dropped on the cells. Generally, no media change was carried out. Cells were analysed two days following transfection.
as §1, with “Bioscience). Analysis of flow cytometry data was carried out in the FlowJo Analysis software (FlowJo, version 10.6.2).” for “Bioscience).”

SOX9 = target: T1, SOX9; assay: Biotinylated enhancer pull down from nuclear extract, SOX9 detection; type: binding; conditions: random DNA 599 as negative control
Description: The oligo was PCR-amplified using biotinylated primers. The PCR product was then SPRI purified to remove biotinylated primer dimers. These dsDNA fragments were incubated with nuclear extract from GSC7 and GSC328. They were then bound to streptavidin magnetic beads, washed three times and the frozen beads were sent for mass spectrometry analysis.
All the buffers were prepared the day before, passed through a 22 μm filter (except the dialysis buffer) and left at 4° C. overnight. DTT and protease inhibitors were added just before use. […] The cell suspension was transferred to a glass Dounce homogenizer and dounced 40 times on ice. […] Dialysis buffer was changed (500 ml) and the dialysis was continued overnight at 4° C. The extract was collected in an 1.5 ml tube and spun at maximum speed for 15 min at 4° C. […] 100 μg aliquots were flash frozen in liquid nitrogen and stored at −80° C.
Enhancers were amplified with 5′ biotinylated primers (Table 5) using PrimeStar Max (Takara) according to the manufacturer's instructions.
Streptavidin Magnetic Bead (NEB, S1420S) were used according to the manufacturer's instructions. […]
Next, we aimed to confirm that indeed SOX2 and SOX9 are binding to the enhancer and the SOX dimer motif. […] To filter for transcription factors a list of all transcription factors was obtained from UniProt and overlapped with the detected proteins in both cell lines.

Molecule | activity compared with CMV, Nanoglo DLR assay (GSC7 cells [2]) | expression level compared with positive control CMV, flow cytometry (GSC7 cells [3]) | fluorescence intensity compared with CMV (GSC7 cells [3]) | further results
Nc1nc(O)c2ncn(COC(CO)CO)c2n1 [ganciclovir] |  |  |  | viability at 200 μM (in vitro): 89%; cell confluence (GSC7 cells [1]): No significant negative effect on cell confluence
B1 | higher than CMV | higher than CMV | higher intensity than CMV | 
B2 |  |  |  | mean fluorescence intensity (MFI) compared with CMV (GSC328 cells): clearly less intense than CMV
B3 | higher than CMV | higher than CMV | higher intensity than CMV | 
B4 |  |  |  | Fold change (Median) (GSC7 cells [2]; expression fold change of the individual enhancer compared to mCMV): 251.6 fold; SOX9 interaction (SOX9): selectively interacts
B5 | higher than CMV | higher than CMV |  | 
B6 | higher than CMV | higher than CMV | higher intensity than CMV | 
